± gives the uncertainty stated by the source.
Assay: self-splicing fitness, log relative to wild type (ln ratio); higher = more splicing; Tetrahymena group I intron in knt gene, E. coli kanamycin selection, DiMSum; sequences stand for … in CUCUCU…GGAGGGAAAAGUUAUCAGGCAUGCACCUGGUAGCUAGUCUUUAAACCAAUAGAUUGCAUCGGUUUAAAAGGCAAGACCGUCAAAUUGCGGGAAAGGGGUCAACAGCCGUUCAGUACCAAGUCUCAGGGGAAACUUUGAGAUGGCCUUGCAAAGGGUAUGGUAAUAAGCUGACGGACAUGGUCCUAACCACGCAGCCAAGUCCUAAGUCAACAGAUCUUCUGUUGAUAUGGAUGCAGUUCACAGACUAAAUGUCGGUCGGGGAAGAUGUAUUCUUCUCAUAAGAUAUAGUCGGACCUCUCCUUAAUGGGAGCUAGCGGAUGAAGUGAUGCAACACUGGAGCCGCUGGGAACUAAUUUGUAUGCGAAAGUAUAUUGAUUAGUUUUGGAGUACUCGUGGUCG
In short: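 A randomised library covering all eight P1ex-region intron nucleotides was built with the intron in the knt kanamycin-resistance gene on pET-22b(+) and held in E. coli BL21(DE3). Cells were grown overnight at 37°C or 30°C on LB agar, with or without 25 μg/mL kanamycin, plus 100 μg/mL carbenicillin, 50 μM IPTG and 0.2% rhamnose, and pooled colonies were amplicon-sequenced on an Illumina HiSeq 2500. DiMSum fitness is the error-weighted combination of wild-type-normalised replicate fold changes, kanamycin versus none.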

Sequence | self-splicing fitness (ln) (30 °C) | self-splicing fitness (ln) (37 °C)
CUCGAGCAAUAUUACGAUGC | -4.39 ± 0.46 | -3 ± 0.47
CUCGAGCAAUAUUACGAUUC | -3.29 ± 0.47 | 
CUCGAGCAAUAUUACGCAAU | -3.57 ± 0.2 | 
CUCGAGCAAUAUUACGCAUG | -3.27 ± 0.2 | -3.58 ± 0.42
CUCGAGCAAUAUUACGCCAC | -2.89 ± 0.43 | -1.24 ± 0.43
CUCGAGCAAUAUUACGCCCG |  | -2.74 ± 0.43
CUCGAGCAAUAUUACGCGAC |  | -0.0316 ± 0.34
CUCGAGCAAUAUUACGGAGG | -2.97 ± 0.1 | -1.46 ± 0.097
CUCGAGCAAUAUUACGGAUG | -2.21 ± 0.13 | -1.46 ± 0.17
CUCGAGCAAUAUUACGGGCG | -2.65 ± 0.17 | -2.1 ± 0.25
CUCGAGCAAUAUUACGGGGG | -4.18 ± 0.42 | 
CUCGAGCAAUAUUACGGUCC | -3 ± 0.36 | -2.33 ± 0.45
CUCGAGCAAUAUUACGGUGC | -2.95 ± 0.25 | -2.88 ± 0.31
CUCGAGCAAUAUUACGGUGG | -2.25 ± 0.13 | -1.75 ± 0.17
CUCGAGCAAUAUUACGGUGU | -2.83 ± 0.33 | -2.7 ± 0.31
CUCGAGCAAUAUUACGUCCA | -1.95 ± 0.25 | -3.15 ± 0.47
CUCGAGCAAUAUUACGUUGC | -3.84 ± 0.42 | -3.45 ± 0.37
CUCGAGCAAUAUUACGUUUU | -3.2 ± 0.13 | -2.1 ± 0.17
CUCUAGCAAUAUUACGACGU |  | -3.03 ± 0.22
CUCUAGCAAUAUUACGACUG | -1.68 ± 0.15 | -0.621 ± 0.18
CUCUAGCAAUAUUACGAUCC | -2.43 ± 0.31 | -2.11 ± 0.3
CUCUAGCAAUAUUACGCAGU | -4.21 ± 0.24 | -4.07 ± 0.23
CUCUAGCAAUAUUACGCAUG | -4.85 ± 0.41 | -3.07 ± 0.3
CUCUAGCAAUAUUACGCCAA | -2.35 ± 0.47 | -2.31 ± 0.45
CUCUAGCAAUAUUACGCCAC | -2.66 ± 0.28 | 
CUCUAGCAAUAUUACGCGAC | -3.14 ± 0.24 | -2.75 ± 0.3

Sequence | self-splicing fitness (ln) (30 °C) | self-splicing fitness (ln) (37 °C)
CUCUAGCAAUAUUACGCGGG | -3.39 ± 0.18 | -1.41 ± 0.14
CUCUAGCAAUAUUACGCUAU | -3.8 ± 0.39 | -2.79 ± 0.3
CUCUAGCAAUAUUACGGCUU | -3.45 ± 0.32 | -3.52 ± 0.42
CUCUAGCAAUAUUACGGUCA | -3.27 ± 0.29 | -3.17 ± 0.37
CUCUAGCAAUAUUACGUAAG | -1.57 ± 0.11 | -0.426 ± 0.15
CUCUAGCAAUAUUACGUACU | -3.33 ± 0.27 | -2.39 ± 0.25
CUCUAGCAAUAUUACGUCGU | -3.66 ± 0.26 | -4.15 ± 0.36
CUCUAGCAAUAUUACGUCUG | -2.34 ± 0.12 | -2.27 ± 0.18
CUCUAGCAAUAUUACGUGAU | -3.45 ± 0.15 | -3.92 ± 0.24
CUCUAGCAAUAUUACGUGUG | -2.93 ± 0.11 | -2.89 ± 0.14
CUCUAGCAAUAUUACGUUGC | -3.71 ± 0.3 | -3.08 ± 0.35
CUGAAGCAAUAUUACGAUAU | -3.39 ± 0.16 | -1.27 ± 0.19
CUGAAGCAAUAUUACGAUCG | 0.00255 ± 0.12 | -0.0487 ± 0.13
CUGAAGCAAUAUUACGCGAG | -0.671 ± 0.088 | -0.527 ± 0.11
CUGAAGCAAUAUUACGCGAU | -0.358 ± 0.071 | 0.0463 ± 0.086
CUGAAGCAAUAUUACGCGUG | -0.382 ± 0.041 | 0.0264 ± 0.063
CUGAAGCAAUAUUACGCUCU | -3.29 ± 0.25 | -3.3 ± 0.47
CUGAAGCAAUAUUACGCUUA | -3.82 ± 0.3 | -2.13 ± 0.23
CUGAAGCAAUAUUACGCUUC | -3.51 ± 0.19 | -2.56 ± 0.19
CUGAAGCAAUAUUACGGGAC | -0.993 ± 0.072 | -0.612 ± 0.1
CUGAAGCAAUAUUACGGGCA | -3.04 ± 0.22 | -1.25 ± 0.2
CUGAAGCAAUAUUACGGGGA | -3.06 ± 0.43 | -2.36 ± 0.37
CUGAAGCAAUAUUACGGUAG | -0.283 ± 0.054 | -0.509 ± 0.061
CUGAAGCAAUAUUACGUACU | -3.61 ± 0.31 | -2.92 ± 0.34
CUGAAGCAAUAUUACGUCCG | 0.226 ± 0.083 | 0.658 ± 0.13
CUGAAGCAAUAUUACGUCUA | -0.846 ± 0.077 | -0.487 ± 0.1

Sequence | self-splicing fitness (ln) (30 °C) | self-splicing fitness (ln) (37 °C)
CUGAAGCAAUAUUACGUGCU | -4.66 ± 0.34 | -2.95 ± 0.34
CUGAAGCAAUAUUACGUUAA | -3.39 ± 0.16 | -2.65 ± 0.28
CUGAAGCAAUAUUACGUUAG | -0.376 ± 0.063 | 0.25 ± 0.096
CUGAAGCAAUAUUACGUUUU | -3.46 ± 0.2 | -3.22 ± 0.17
CUGCAGCAAUAUUACGACGC | -3.79 ± 0.27 | -3.06 ± 0.29
CUGCAGCAAUAUUACGACGU | -2.98 ± 0.18 | -2.49 ± 0.29
CUGCAGCAAUAUUACGAGCU | -2.93 ± 0.18 | -2.25 ± 0.21
CUGCAGCAAUAUUACGAUCU | -4.3 ± 0.43 | -2.46 ± 0.27
CUGCAGCAAUAUUACGCCUA |  | -0.55 ± 0.23
CUGCAGCAAUAUUACGCCUC | -4.25 ± 0.42 | -2.16 ± 0.5
CUGCAGCAAUAUUACGCGCU | -2.68 ± 0.2 | -2.27 ± 0.22
CUGCAGCAAUAUUACGCGGG | -3.94 ± 0.23 | -1.65 ± 0.18
CUGCAGCAAUAUUACGCUAG | -3.01 ± 0.17 | -2.02 ± 0.24
CUGCAGCAAUAUUACGCUAU | -4.29 ± 0.25 | -3.04 ± 0.25
CUGCAGCAAUAUUACGCUCA |  | -2.21 ± 0.35
CUGCAGCAAUAUUACGCUUC |  | -1.03 ± 0.21
CUGCAGCAAUAUUACGGAAG | -1.56 ± 0.072 | -0.784 ± 0.095
CUGCAGCAAUAUUACGGACC | -5.3 ± 0.36 | -2.18 ± 0.31
CUGCAGCAAUAUUACGGCAC | -3.13 ± 0.14 | -0.857 ± 0.12
CUGCAGCAAUAUUACGGCAU | -0.953 ± 0.057 | -0.378 ± 0.071
CUGCAGCAAUAUUACGGCGU |  | -1.04 ± 0.32
CUGCAGCAAUAUUACGGUCC | -3.4 ± 0.23 | -2.99 ± 0.37
CUGCAGCAAUAUUACGGUCU | -3.44 ± 0.17 | -2.07 ± 0.2
CUGCAGCAAUAUUACGGUGG | -3.9 ± 0.19 | -3.09 ± 0.24
CUGCAGCAAUAUUACGUCGA | -3.05 ± 0.12 | -1.65 ± 0.1
CUGCAGCAAUAUUACGUGAC | -0.842 ± 0.063 | 0.23 ± 0.084

Sequence | self-splicing fitness (ln) (30 °C) | self-splicing fitness (ln) (37 °C)
CUGCAGCAAUAUUACGUGCC | -2.23 ± 0.21 | -2.26 ± 0.26
CUGCAGCAAUAUUACGUGUA | -3.82 ± 0.23 | -2.63 ± 0.16
CUGCAGCAAUAUUACGUGUU | -4.86 ± 0.31 | -2.28 ± 0.19
CUGGAGCAAUAUUACGAAUU |  | -1.27 ± 0.29
CUGGAGCAAUAUUACGACGA | -1.9 ± 0.29 | -1.7 ± 0.33
CUGGAGCAAUAUUACGAGGU | -3.48 ± 0.23 | -2.11 ± 0.17
CUGGAGCAAUAUUACGAUGC |  | -1.84 ± 0.4
CUGGAGCAAUAUUACGAUGG | -3.66 ± 0.26 | -1.47 ± 0.22
CUGGAGCAAUAUUACGCAAA | -3.87 ± 0.42 | 
CUGGAGCAAUAUUACGCCGU | -2.44 ± 0.4 | -1.06 ± 0.38
CUGGAGCAAUAUUACGCUUC | -2.1 ± 0.28 | 
CUGGAGCAAUAUUACGGAGA | -3.11 ± 0.42 | 
CUGGAGCAAUAUUACGGCGG | -0.649 ± 0.16 | -1.44 ± 0.26
CUGGAGCAAUAUUACGGGCC |  | -2.19 ± 0.31
CUGGAGCAAUAUUACGGUAC | -2.41 ± 0.18 | -2.84 ± 0.27
CUGGAGCAAUAUUACGUAGA |  | -2.67 ± 0.2
CUGGAGCAAUAUUACGUAGG | -1.78 ± 0.071 | -1.4 ± 0.095
CUGGAGCAAUAUUACGUCGC | -2.03 ± 0.46 | -2.57 ± 0.48
CUGGAGCAAUAUUACGUCUG | 0.206 ± 0.068 | 0.0818 ± 0.099
CUGGAGCAAUAUUACGUGAC | -1.85 ± 0.18 | -0.992 ± 0.24
CUGGAGCAAUAUUACGUGUC | -3.17 ± 0.2 | -3.18 ± 0.27
CUGUAGCAAUAUUACGAACU | -2.78 ± 0.26 | 
CUGUAGCAAUAUUACGACUU | -2.12 ± 0.21 | -1.36 ± 0.33

From the supplement of paper PMC7877785
